8 substances from paper doi:10.1101/2024.11.06.622366 can be followed below.

Assay [1] deals with 11S, large fragment of a split luciferase.
The target is the same in assay [2]. The source holds these as a separate data set.
The target is the same in assay [3]. This is another data set of the same source.
Assay [4] shares this target. The source holds these as a separate data set.
Assay [5] shares this target. The source holds these as a separate data set.
Assay [6] shares this target. This is another data set of the same source.
For assay [7] the target is unchanged. This is another data set of the same source.
Assay [8] shares this target. This is another data set of the same source.

Where two headings read alike, the source gives them in different places.

The Kd is the free concentration of one partner at which half of the binding sites on the other are occupied at equilibrium, for simple one-to-one binding. Consider “PINK1 DDL I111S (from UniProt Q9BXM7 78-581)”, for which, in assay [1], the Kd was 144 nM. That is a sub-micromolar value.

In the case of “PINK1(3EA) DDL (from UniProt Q9BXM7 78-581)”, the Kd in assay [2] amounted to 715 nM. “PINK1(3EA) DLD (from UniProt Q9BXM7 78-581)” had a Kd in assay [3] of 93.7 nM.

With “PINK1(3EA) LDD (from UniProt Q9BXM7 78-581)”, in assay [4], the Kd was found to be 284 nM. As to “PINK1(ALALAL) DDL (from UniProt Q9BXM7 78-581)”, the Kd in assay [5] amounted to 133 nM. In turn, “PINK1Δ(1-50) DDL (from UniProt Q9BXM7 51-581)” came in with a Kd in assay [6] of 238 nM. For “PINK1Δ(1-91) DDL (from UniProt Q9BXM7 92-581)”, the Kd in assay [7] came out at 187 nM. That is a sub-micromolar value. Substance “PINK1Δ(1-150) DDL (from UniProt Q9BXM7 151-581)” returned a Kd in assay [8] of 447 nM.
